Experiments:
[1] = test system: CD8+ T-cells of healthy HLA-A*02 donors; experiment: In vitro immunogenicity: T-cell priming with aAPCs loaded with peptide/MHC and anti-CD28, multimer staining; format: cell-based, human; details: for donors: percentage of positive donors; for donors / wells: in vitro immunogenicity, Table 10A; for wells: percentage of positive wells; for Wells positive [%]: HLA-A*02 restricted peptides, among evaluable wells, Table 10B
Source text: In order to obtain information regarding the immunogenicity of the TUMAPs of the present invention, the inventors performed investigations using an in vitro T-cell priming assay based on repeated stimulations of CD8+ T-cells with artificial antigen presenting cells (aAPCs) loaded with peptide/MHC complexes and anti-CD28 antibody.
In order to perform in vitro stimulations by artificial antigen presenting cells loaded with peptide-MHC complex (pMHC) and anti-CD28 antibody, the inventors first isolated CD8+ T-cells from fresh HLA-A*02 leukapheresis products via positive selection using CD8 microbeads (Miltenyi Biotec, Bergisch-Gladbach, Germany) of healthy donors obtained from the University clinics Mannheim, Germany, after informed consent.
PBMCs and isolated CD8+ lymphocytes were incubated in T-cell medium (TCM) until use consisting of RPMI-Glutamax (Invitrogen, Karlsruhe, Germany) supplemented with 10% heat inactivated human AB serum (PAN-Biotech, Aidenbach, Germany), 100 U/ml Penicillin/100 μg/ml Streptomycin (Cambrex, Cologne, Germany), 1 mM sodium pyruvate (CC Pro, Oberdorla, Germany), 20 μg/ml Gentamycin (Cambrex). 2.5 ng/ml IL-7 (PromoCell, Heidelberg, Germany) and 10 U/ml IL-2 (Novartis Pharma, Nürnberg, Germany) were also added to the TCM at this step.
Generation of pMHC/anti-CD28 coated beads, T-cell stimulations and readout was performed in a highly defined in vitro system using four different pMHC molecules per stimulation condition and 8 different pMHC molecules per readout condition.
The purified co-stimulatory mouse IgG2a anti human CD28 Ab 9.3 (Jung et al., 1987) was chemically biotinylated using Sulfo-N-hydroxysuccinimidobiotin as recommended by the manufacturer (Perbio, Bonn, Germany). Beads used were 5.6 μm diameter streptavidin coated polystyrene particles (Bangs Laboratories, Illinois, USA).
800.000 beads/200 μl were coated in 96-well plates in the presence of 4×12.5 ng different biotin-pMHC, washed and 600 ng biotin anti-CD28 were added subsequently in a volume of 200 μl. Stimulations were initiated in 96-well plates by co-incubating 1×10^6 CD8+ T-cells with 2×10^6 washed coated beads in 200 μl TCM supplemented with 5 ng/ml IL-12 (PromoCell) for 3 days at 37° C. Half of the medium was then exchanged by fresh TCM supplemented with 80 U/ml IL-2 and incubating was continued for 4 days at 37° C. This stimulation cycle was performed for a total of three times. For the pMHC multimer readout using 8 different pMHC molecules per condition, a two-dimensional combinatorial coding approach was used as previously described (Andersen et al., 2012) with minor modifications encompassing coupling to 5 different fluorochromes. Finally, multimeric analyses were performed by staining the cells with Live/dead near IR dye (Invitrogen, Karlsruhe, Germany), CD8-FITC antibody clone SK1 (BD, Heidelberg, Germany) and fluorescent pMHC multimers. For analysis, a BD LSRII SORP cytometer equipped with appropriate lasers and filters was used. Peptide specific cells were calculated as percentage of total CD8+ cells. Evaluation of multimeric analysis was done using the FlowJo software (Tree Star, Oregon, USA). In vitro priming of specific multimer+CD8+ lymphocytes was detected by comparing to negative control stimulations.

HLA-A*02:01 = HLA-A*02:01 (Homo sapiens, UniProt P04439, D140Y/D185E/D98H/E176V/E277Q/G131W/G231S/I119V/I121R/I166T/I218V/L300P/L318F/N151K/N90K/P208A/P217A/Q86G/Q94H/R138H/R169H/T345S); experiment: MHC binding assay (UV-ligand exchange, beta2m ELISA, peptide exchange yield); details: binding to HLA-A*02:01, β2m ELISA
Source text: Candidate peptides for T cell based therapies according to the present invention were further tested for their MHC binding capacity (affinity). The individual peptide-MHC complexes were produced by UV-ligand exchange, where a UV-sensitive peptide is cleaved upon UV-irradiation, and exchanged with the peptide of interest as analyzed. Only peptide candidates that can effectively bind and stabilize the peptide-receptive MHC molecules prevent dissociation of the MHC complexes. To determine the yield of the exchange reaction, an ELISA was performed based on the detection of the light chain (β2m) of stabilized MHC complexes. The assay was performed as generally described in Rodenko et al. (Rodenko et al., 2006).
96 well MAXISorp plates (NUNC) were coated over night with 2 ug/ml streptavidin in PBS at room temperature, washed 4× and blocked for 1 h at 37° C. in 2% BSA containing blocking buffer. Refolded HLA-A*02:01/MLA-001 monomers served as standards, covering the range of 15-500 ng/ml. Peptide-MHC monomers of the UV-exchange reaction were diluted 100 fold in blocking buffer. Samples were incubated for 1 h at 37° C., washed four times, incubated with 2 ug/ml HRP conjugated anti-β2m for 1 h at 37° C., washed again and detected with TMB solution that is stopped with […]. Absorption was measured at 450 nm. Candidate peptides that show a high exchange yield (preferably higher than 50%, most preferred higher than 75%) are generally preferred for a generation and production of antibodies or fragments thereof, and/or T cell receptors or fragments thereof, as they show sufficient avidity to the MHC molecules and prevent dissociation of the MHC complexes.

Row | Peptide exchange (MHC class I binding score, peptide exchange yield) (HLA-A*02:01) | Substance | also measured
1 | “+++” (≥50 = +++) | 148 (RLLENMTEVV; listed as Homo sapiens) [compound 148] | –
2 | “+++” (≥50 = +++) | 157 (SLIERDLKL; listed as Homo sapiens) [compound 157] | –
3 | “++++” (≥75% = ++++) | 164 (KMLDEILLQL; listed as Homo sapiens) [compound 164] | –
4 | “+++” (≥50 = +++) | 169 (YLAHFIEGL; listed as Homo sapiens) [compound 169] | –
5 | “+++” (≥50 = +++) | 189 (AISEVIGKITA; listed as Homo sapiens) [compound 189] | –
6 | “++” (≥20% = ++) | 152 (KLLAVIHEL; listed as Homo sapiens) [compound 152] | –
7 | “+++” (≥50 = +++) | 144 (LLNDRIWLA; listed as Homo sapiens) [compound 144] | –
8 | “+++” (≥50 = +++) | 187 (GLHNVVYGI; listed as Homo sapiens) [compound 187] | –
9 | “+++” (≥50 = +++) | 149 (YQFDKVGILTL; listed as Homo sapiens) [compound 149] | –
10 | “++” (≥20% = ++) | 176 (RTLDKVLEV; listed as Homo sapiens) [compound 176] | –
11 | “+++” (≥50 = +++) | 143 (KLSDVWKEL; listed as Homo sapiens) [compound 143] | –
12 | “+++” (≥50 = +++) | 138 (KQFEGTVEI; listed as Homo sapiens) [compound 138] | –
13 | “+++” (≥50 = +++) | 145 (LLLEVVKQV; listed as Homo sapiens) [compound 145] | –
14 | “+++” (≥50 = +++) | 188 (FLVDGPRVQL; listed as Homo sapiens) [compound 188] | –
15 | “+++” (≥50 = +++) | 137 (QLTEIKPLL; listed as Homo sapiens) [compound 137] | –
16 | “+++” (≥50 = +++) | 168 (GLIRFPLMTI; listed as Homo sapiens) [compound 168] | –

The next lines start with the substance.

Row | Substance | Peptide exchange (MHC class I binding score, peptide exchange yield) (HLA-A*02:01) | also measured
17 | 220 (KMDPVAYRV; listed as Homo sapiens) [compound 220] | – | donors [1]: ++++ (>=70% = ++++); wells [1]: +++ (50%-69% = +++)
18 | 21 (VLIDHRWVL; listed as Homo sapiens) [compound 21] | “+++” (≥50 = +++) | Wells positive [%] [1]: “+” (<20% = +)
19 | 1 (ALIKQLFEA; listed as Homo sapiens) [compound 1] | “+++” (≥50 = +++) | Wells positive [%] [1]: “+” (<20% = +)
20 | 33 (ALWEKNTHL; listed as Homo sapiens) [compound 33] | “+++” (≥50 = +++) | –
21 | 63 (KLFSILSTV; listed as Homo sapiens) [compound 63] | “++” (≥20% = ++) | –
22 | 72 (YLLDYPNNLL; listed as Homo sapiens) [compound 72] | “+++” (≥50 = +++) | –
23 | 32 (KLNTETFGV; listed as Homo sapiens) [compound 32] | “++” (≥20% = ++) | –
24 | 35 (KLLDLTVRI; listed as Homo sapiens) [compound 35] | “+++” (≥50 = +++) | –
25 | 96 (KLYSRLVYV; listed as Homo sapiens) [compound 96] | “++” (≥20% = ++) | –
26 | 119 (ILYQTVTGL; listed as Homo sapiens) [compound 119] | “++” (≥20% = ++) | –
27 | 136 (KLFDIFSQQV; listed as Homo sapiens) [compound 136] | “+++” (≥50 = +++) | –
28 | 78 (ALDPELLLL; listed as Homo sapiens) [compound 78] | “++” (≥20% = ++) | –
29 | 16 (VLVDQSWVL; listed as Homo sapiens) [compound 16] | “+++” (≥50 = +++) | –
30 | 101 (GLSEGHTFQV; listed as Homo sapiens) [compound 101] | “+++” (≥50 = +++) | –
31 | 131 (KLLDVVHPA; listed as Homo sapiens) [compound 131] | “++” (≥20% = ++) | –
32 | 14 (FLDKPEDVLL; listed as Homo sapiens) [compound 14] | “++” (≥20% = ++) | –
33 | 76 (YLIGEKQHYL; listed as Homo sapiens) [compound 76] | “+++” (≥50 = +++) | –
34 | 85 (ILHDINSDGVL; listed as Homo sapiens) [compound 85] | “++” (≥20% = ++) | –
35 | 68 (SILQFVHMV; listed as Homo sapiens) [compound 68] | “+++” (≥50 = +++) | –
36 | 50 (TLMAEMHVV; listed as Homo sapiens) [compound 50] | “+++” (≥50 = +++) | –
37 | 81 (ALLSQQTHL; listed as Homo sapiens) [compound 81] | “+++” (≥50 = +++) | –
38 | 70 (MISELEVRL; listed as Homo sapiens) [compound 70] | “+++” (≥50 = +++) | –
39 | 75 (EMIENIQSV; listed as Homo sapiens) [compound 75] | “++” (≥20% = ++) | –
40 | 129 (VLIDVLKEL; listed as Homo sapiens) [compound 129] | “+++” (≥50 = +++) | –
41 | 219 (FLDEKGRCV; listed as Homo sapiens) [compound 219] | – | donors [1]: +++ (50%-69% = +++); wells [1]: ++ (20%-49% = ++)
42 | 90 (GLLKPGLNVVL; listed as Homo sapiens) [compound 90] | “+++” (≥50 = +++) | –
43 | 93 (SLQELRLLL; listed as Homo sapiens) [compound 93] | “++++” (≥75% = ++++) | –
44 | 100 (SLDDFLATA; listed as Homo sapiens) [compound 100] | “+++” (≥50 = +++) | –

Reference: patent US11597752B2, “Peptides and combination of peptides and scaffolds thereof for use in immunotherapy against colorectal carcinoma (CRC) and other cancers” (priority 2015, dated 2023)
